Measurements from patent US7794927B2, “Method for identifying agonists or antagonists of the G-protein coupled receptor mas-like 1” (priority 2002, dated 2010).
Ends that are not written are not given here.

Tests used:
[1] = target: T1, G protein-coupled receptor mas-like 1 (Homo sapiens, UniProt Q96LB1); assay: FLIPR assay of stimulation of mas-like 1 transiently expressed in CHO-K1 cells (Fluo4 Ca2+ fluorescence); type: cell-based; conditions: for formation of fluorescence in the cells: CHO-K1 cells transiently expressing mas-like 1, zero value about 20 fluorescence intensity units; for agonistic effects on mas-like 1: test system designed in accordance with the detection method
T1 construct: The receptor has therefore been amplified starting from genomic DNA using a polymerase chain reaction (PCR); expressed in transfected cells; host or cells: CHO-K1 (transient, pcDNA3.1)
T1 sequence (Q96LB1 1-330): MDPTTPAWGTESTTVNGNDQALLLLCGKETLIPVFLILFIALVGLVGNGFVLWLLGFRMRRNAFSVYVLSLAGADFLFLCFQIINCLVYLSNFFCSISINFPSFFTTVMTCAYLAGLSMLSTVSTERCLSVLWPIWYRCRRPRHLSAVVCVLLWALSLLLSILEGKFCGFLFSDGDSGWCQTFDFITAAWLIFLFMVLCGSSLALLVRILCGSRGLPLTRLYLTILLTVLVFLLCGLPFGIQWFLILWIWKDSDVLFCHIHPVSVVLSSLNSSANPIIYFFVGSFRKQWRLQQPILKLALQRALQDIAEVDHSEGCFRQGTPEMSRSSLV
Procedure: CHO-K1 cells were cultivated in basal Iscove's medium supplemented with 10% fetal bovine serum, 10 000 U/ml-10 000 μg/ml penicillin-streptomycin, gentamycin and 2 mM glutamine.
Iscove's medium is commercially available inter alia from Biochrom, Berlin. The composition of Iscove's medium is described in “Iscove, N. N., Melchers, F., Journal of Experimental Medicine 147, 923-933 (1978)”. The CHO-K1 cells were applied in an amount of 2×10^5 cells to a 35 mm culture dish for the transient transfection. The cells were transfected after incubation for about 24 hours or at a confluence of 50-80% with 2 μg of DNA using Lipofectamine reagent which is commercially available inter alia from Invitrogen Life Technologies, Karlsruhe.
About 16 to 18 hours after the transfection, the cells were transferred into 96-well microtiter plates with a density of about 80 000 cells per well. Incubation was then continued for 18 to 24 hours. After this, 95 μl of HBSS (Hank's buffered saline solution) which contained 20 mM HEPES, 2.5 mM probenecid, 4 μM Fluo4 and 1% fetal bovine serum were added, and incubation was carried out in the presence of 5% CO2 at 37° C. for 1 hour. Fluo4 is a dye which fluoresces in the presence of Ca^2+. Fluo4 is sold commercially inter alia by Molecular Probes Europe BV, Leiden. After the incubation, the cells were washed three times with PBS (phosphate buffered saline) which contained 1 mM MgCl2, 1 mM EDTA and 2.5 mM probenecid.
After the last washing step, about 100 μl of the solution were left on the cells in each well. The peptides to be tested were dissolved in water or DMSO (dimethyl sulfoxide) in a concentration of 2 mM. The appropriate dilutions of the final concentration ([…]) were prepared starting from such a stock solution. The fluorescence was measured using a FLIPR (Fluorometric Imaging Plate Reader; Molecular Devices GmbH, Ismaning) for a total of 3 minutes at 1-second intervals for the first minute and at 3-second intervals during the second and third minute. The measurements between 18 seconds and 37 seconds were used to determine the agonistic effect.
Various peptides were tested for their property of stimulating the G protein-coupled receptor mas-like 1. The test was carried out using FLIPR technology. The receptor was for this purpose transiently expressed in CHO-K1 cells.

[2] = target: T1, G protein-coupled receptor mas-like 1; assay: Arachidonic acid liberation in transiently transfected CHO-K1 cells; type: cell-based

concentration dependence of activation of the receptors ([1]; concentration range from 5×10^−6 to 1×10^−5M) | liberation of arachidonic acid [2] | agonistic effects on mas-like 1 [1] | Substance | formation of fluorescence in the cells [1]
– | – | – | H-Phe-Leu-Phe-Gln-Pro-Gln-Arg-Pro-NH2 (H-FLFQPQRP-NH2; listed as Homo sapiens) [neuropeptide FF, natural ligand of mas-like 1] | ca. 2 000 fluorescence intensity units
linear dependence | liberated arachidonic acid | – | PKPQQFFGLM [substance P2-11] | ca. 2 500 fluorescence intensity units
– | – | Agonistic effects were shown | substance P1-9: N-terminal fragment of substance P, SEQ ID NO:12 (RPKPQQFFG; listed as Homo sapiens) | –
– | – | Agonistic effects were shown | substance P4-11: fragment of substance P, SEQ ID NO:11 (PQQFFGL; listed as Homo sapiens) | –
